Results on two molecules are retold here after article PMC9712106.

Experiment [1] addresses PfPTRAMP (42-309) with a C-terminal Avitag, biotinylated (Plasmodium falciparum). Kind of experiment: BLI; biotinylated PfPTRAMP or PTRAMP-CSS immobilised on High Precision Streptavidin (SAX) biosensors; twofold dilution series of anti-PfPTRAMP nanobody; 25 °C; kinetics buffer (PBS pH 7.4, 0.1% BSA, 0.02% Tween-20); 1:1 model; mean of two independent experiments. Background: Biolayer interferometry detects binding as a change in optical thickness at a sensor tip.

For experiment [2], the target named is biotinylated PTRAMP-CSS heterodimer: PfPTRAMP (42-309) with C-terminal Avitag, with PfCSS (20-290) (Plasmodium falciparum). Described as above.

B1: anti-PfPTRAMP nanobody H10 (VHH)
VHH: QVQLQESGGGLVQPGGSLRLSCAASGFTFDNYWMYWVRQAPGKGLEWVSAINTVGSHTYYADSVKGRFTISRDNAKNTLYLQMNSLKSEDTAVYYCAKGPWGFGTSGWGEMDYWGKGTQVTVSS
The Kd is the free concentration of one partner at which half of the binding sites on the other are occupied at equilibrium, for simple one-to-one binding. By koff is commonly meant the first-order rate constant of dissociation. A higher koff goes with a short-lived complex. The kon is the second-order rate constant of association. In the case of B1, in experiment [1], the dissociation constant (Kd) came to 530 nM, the koff stood at 0.088 s⁻¹ and the kon is 170000 M⁻¹ s⁻¹. In experiment [2], the dissociation constant (Kd) was 390 nM, the koff was determined as 0.077 s⁻¹ and the kon is 200000 M⁻¹ s⁻¹.

B2: anti-PfPTRAMP nanobody H8 (VHH)
VHH: QVQLQESGGGLVQPGGSLRLSCAASGFTFSSYWMYWVRQAPGKGLEWVSAINTGGGSTAYADSVKGRFTISRDNAKNTLYLQMNSLKSDDTAVYYCVKARGSSWSDRVFDYWGQGTQVTVSS
As to B2, in experiment [1], the Kd came out at 400 nM, the koff is 0.25 s⁻¹ and the kon was 620000 M⁻¹ s⁻¹. Moreover, in experiment [2], the Kd amounted to 410 nM, the koff worked out at 0.25 s⁻¹ and the kon is 790000 M⁻¹ s⁻¹.
